assay: yeast display, Sf9 membrane polyspecificity reagent, FACS + sequencing; frameworks hold sequencing errors
How it was run: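 Nanobodies from a synthetic yeast display library (Saccharomyces cerevisiae BJ5465), induced 36–48 hours with galactose, were stained 1 hour at 4 °C with 10% biotinylated, detergent-solubilized Sf9 membrane reagent, enriched on streptavidin microbeads, then FACS-sorted. Anti-HA (expression) and streptavidin (reagent binding) fluorescence set low and high (top ~1%) gates. Polyreactivity labels come from the gate of origin. Genes were colony-PCR amplified, MiSeq 2 × 250 sequenced and filtered by CDR length.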

| Sequence | polyreactivity (PSR sort gate) |
| --- | --- |
| QVQRVESGGGLVQAGGSLRLSCAASGRTFAPYAMGWSRQAPGKARELVAGITYGGSRTYYADSVKGRFTISRDNAKNTVYLQMNSLKPEDPAVYYCNARSYPYQIRYVTYGAGYYYWGQGTQVTVSS | high polyreactivity |
| QVQRVESGGGLVQAGGSLRLSCAASGRTFAYYVMGWYRQAPGKERELVAAISWSAGSTYYADSVKGRFTISRDNAKNTVYLQMNSLKPEDTAVYYCAADYRFRYEYWGQGTQVTVSS | low polyreactivity |
| QVQRVESGGGLVQAGGSLRLSCAASGRTFDSYAMGWYRPAPGKERELVAVITRGVRTYYADSVKGRFTISRDNAKNTVYLQMNSLKPEDTAVYYCAKERYNANYDTSLYDYWGQGTQVTVSS | low polyreactivity |
| QVQRVESGGGLVQAGGSLRLSCAASGRTFWTNAMGWYRQAPGTERELVAAISGSGGSTYFADSVKGRFTISRDNAKNTVYLQMNSLKPEDTAVYYCAAYSRFRYDYWGQGTQVTVSS | high polyreactivity |
| QVQRVESGGGLVQAGGSLRLSCAASGRTSYYNTMGWYRQAPGKEMELVAAITGRGDSTYYADSVKGRFTISRDNAKNTVYLQMNSLKPEDTAVYYCADDELHLLYRVSKFVDYNHWGQGTQVTVSS | low polyreactivity |
| QVQRVESGGGLVQAGGSLRLSCAASGSIFGPYAMVWYRQAPGKERELVAAITWSVGSTYYADSVKGRFTISRDNAKTTVYLQMNSLKPEDTAVYYCNAGVLGVYTSYNGDDYWGQGTQVTVSS | low polyreactivity |
| QVQRVESGGGLVQAGGSLRLSCAASGSIFNPYAMGWYRQARGKVRELGAAISKSGTSTSYADSRKGRFTISRDNAKNTVYLQMNSLKPEDTAVYYCAVQVRRRYNYWGQGTQETVSS | high polyreactivity |
| QVQRVESGGGLVQAGGSLRLSCAASGSIFSIYAMGWNRQAPGKEMEFVAAIDSGTSTTYADSVKGRFTISRDNAKNTVYLQMNSLKPEDTAVYYCAAALYSDVAAVSTYGYYWGQGTQVTVSS | low polyreactivity |
| QVQRVESGGGLVQAGGSLRLSCAASGSIFTGNAMGWYRQAPGKEREFVAAIRRSGA | low polyreactivity |
| QVQRVESGGGLVQAGGSLRLSCAASGSIFTSNVRGWYRQAPGKERELDAAITITGTTNYADSVKGRFTISRDNAKNTVYFQMNRLKPEDTAVYYCAKDPVELSPADWRADYDYWGQGSQVTVSS | low polyreactivity |
| QVQRVESGGGLVQAGGSLRLSCAASGSTFIGYDMRWYRQAPGTERELVAAISYSDGTYYADSVKGRFTISRDNAKNTVYLQMNSLKPADTAVYYCAADSLYYRYDYWGQGPQVTVSS | low polyreactivity |
| QVQRVESGGGLVQAGGSLRLSCAASGSTFRRYTMGWYRQAPGKERELVAAITYRGSSTYYADSVKGRFTISRDNAKNTVYLQMNSLKPEDTAVYYCAADARYTGYYYWGQGTQVTVSS | high polyreactivity |
| QVQRVESGGGLVQAGGSLRLSCAASGSTFYAYAMGWYRQSPGKERELVATITWSGGSTFYADSVKGRFTISRDNAKNTVYLQMNSLKPEDTAVYYCAARSRFPTIADGDYWGQGTQVTVSS | low polyreactivity |
| QVQRVESGGGLVQAGGSLRLSCAASGSTFYDNTMGWYRPAPGKERELVAAITGTGGNTYYADSVKGRFTISRDNAKNTDYLQMNSLKPEDTAVYYWNRVPVYYYRYGYWGQGTQVTVSS | low polyreactivity |
| QVQRVESGGGLVQAGGSLRLSCAASGSTLVYNDMGWYRPAPGKEREFVAAIRSNDGSTYYADSVKGRFTISRDNAKNTVYLQMNSLKPEDTAVYYCNKDVWDGYDWPEFDYSGQGTQVTVSS | low polyreactivity |
| QVQRVESGGGLVQAGGSLRLSCAPSAIIIYYYAMGCYRQAPGNEMELVAGISYSGGSTYADSVKGRLTISRDNAKNTVYLQMNSLKPEDTAVYFCAADYDYGGHWYDYWGQGTQVTVSS | low polyreactivity |
| QVQRVESGGGLVQAGGSLRLSCAPSGRTFGYYAMGWYRQAPGKERELVAAISRGGRTNYADSVKGRFTISRDNAKNTVYLQMNSLQPEDTAVYYCAKSGTIPRYTASYSLLDYWGQGTQVTVSS | low polyreactivity |
| QVQRVESGGGLVQAGGSLRLSCPASGSTLYGYAMGWYRPSPGKERELVAGITRGGSTSYADSEKGRFTISRDNAKNTVYLQMNSLKPEDTAVYYCAARSYPGSPVRYDYWGQGTQVTVSS | high polyreactivity |
| QVQRVESGGGLVQAGGSLRLSFAAAGGILYPYAMGWYRQAPGKERELVAAITSSGSTYYADSVKGRFTISRDNAKITVYLQMNSLNPEDHAVYYCAITLPTRNKLRSGREYDYWGQGTQVTVSS | low polyreactivity |
| QVQRVESGGGLVQAGGSLRLSSAASGPIYGDYAMGWYRQEPGKERELVADITWSGGSTYYADSVKGRFTISRDNAKNTVYLQMNSLKPEDTAVYYCNADVWFYYTFDYWGLGTQVTVSS | low polyreactivity |
| QVQRVESGGGLVQAGGSLRLSSAASGSIFFDYAMRGYRQAPGNERELVAAISGSGGSRYYADSVKGRFTISRDNAKNTVYLQMNSLIPEDTAVYYCAAGYKYFRIRYDYWGQGTQVTVSS | high polyreactivity |
| QVQRVESGGGLVQAGVSLRLSCASSGITFDVNALGWYRQAPGKERELVAAITAGGNTYYADSVKGRFTISRDKAKTTVYLQMNSLKPEETAVYYCAAVSTSLYWAGYDYWGQGTQVTVSS | low polyreactivity |

| Sequence | polyreactivity (PSR sort gate) |
| --- | --- |
| QVQRVESGGGLVQARGSLRLSCAASGLIFPPNVMGWYRQAPGKESEFVAAITSSGSTNYADSVKGRFTISRDNAKYTVYIQMNSLKPEDTAVYYCARDQTWSYQPWYYLSYPQYEYWGQGTEVTVSS | low polyreactivity |
| QVQRVESGGGLVQAVGSLRLSCPASGIISVCNARGWYRQAPGKERELVASINSGGSTNYADSVKGRFTISRDNAKNTVYLQMNSLKPEDTAVYYCARLHDIRSPYSGTPVRDLPDEDDYWGQGTQVTVSS | low polyreactivity |
| QVQRVESGGRLVPPGGSLRLSCAASGRIFYTNAMGCYRQAPGKERELVARITGAGNTYYADSVKGRFTISRDNAKNTVYLQLNSLKPEDTAVYYCTADLYWRGDYWGQGTQVTVSS | high polyreactivity |
| QVQRVESRGVLVQAGGTLRLSCAASGISFGRNTMGWYRQAPLKERELVATIRSGTNYADSVKGRFTISRDNAKNTVDLQMNSLKPDDTAVDYCAVRYFGGRRSYYWGQGSQVTVSS | high polyreactivity |
| QVQRVESVGGLVQAGGSLRLICAASGRIFQVNAIGWYRQAPGKERELVAAITYSGGTTYYADSVKGRFTISRDNAKNTVYLQMNSLKPEDTAVYYCAAEGYGALGDPWQYGYEYWGQGTQVTVSS | low polyreactivity |
| QVQRVETAGRLVQARGSLRLSCAPSGIIFKRNAIGWYRQAPGKEREFVAAISSSGDTTYYADSVKGRFTISRDNAKNTVYLQMNSLKPEDTAVYYCAKPIRTSRARGMYYWGQGTEVTVSS | high polyreactivity |
| QVQRVVSGGGLVQAGGSLRLSCAASGSIFQGNAMGWYRQAPGQERELVAAIHRSDGRTYYADSVKGRFTISRDNAKNTVYLQMNSLKPEDTAVYYCKVDVLLVHDYVFYSWMDYWGQGSQVTVSS | high polyreactivity |
| QVQVEDTGGGLVQEGGSHRLSCAASGRTFYYYTMGRYRQPPVKEREFVAAITISGARTYYADSVKGRFTISRDNAKNTVYLQMNSLKPEDTPVYYCAARRRYRSRVTTVGYNYWGQGTQVTVSS | high polyreactivity |
| QVQVESGGGLVQAGGSLRLSCAASGSIIDQYVMGWYRQAPGKERELVAAISRGGRTYYADSVKGRFTISRDNAKNTVYLQMNSLKPEDTAVYYCAARSDVRGFDYWGQGTQVTVSS | low polyreactivity |
| QVQVVESGAGLVQAGGSLRISCAASGRNFVANAMGWYRQAPGKERELVAAISIIGAGTYYADSVKGRFTISRDNAKITVYLQMNSLKPEDTAVYYCATQYGWYIFGYWGQGSQVTVSS | high polyreactivity |
| QVQVVESGGALVQAGGSLRLSCAASGRIFSPYAMGWYRQAPGKESELVAAITSASSTYYADSVKGRFTISRDNAKNTVYLEMNRLKPEDTAVYYCAASYWRYGSAFDYWGQGTQVTVSS | high polyreactivity |
| QVQVVESGGGILQAGGSLRLSCAASGSIFYTNAMGWYRQAPGKERELVAAINLRDTGTYYADSVKGRFTISRDNAKNTVYLQMNSLNPDDTAVYYCAVDVYSRRTRIRYDSWGHGTQVTVSS | low polyreactivity |
| QVQVVESGGGIVQAGGSLRLSCAASGFIFNGNAMGWYRQAPGKERELVAADSVKGRFTISRDNAKNSVYLQMNRLKPEDTAVYYCATEFWQASDYDYWGHGTQVTVSS | low polyreactivity |
| QVQVVESGGGLDNAGGSLGLSCAASGSIFYYNAMGWYRQAPGKERELVAAISSSGGSTYYADSVKGRFTISRDNAKNTVYLQMNSLKPEDTAVYYCAAKLRHWAHHTKYDYWGQGTQVTVSS | low polyreactivity |
| QVQVVESGGGLVQAGGSLRLICAASGSTSWSYAMGWYRQAPGKERELVAAITRTGSTNYADSVKGRFTISRDNAKNTVYLQMNSLKPEDTAVYYCVYATLRYDYWGQGTQVTVSS | low polyreactivity |
| QVQVVESGGGLVQAGGSLRLSCAASGFIFRTYTMGWYRQAPGKERELVAAISYRGSSTYYADSVKGRFTISRDNAKNTVYFLMNSLKPEDTADYYCAAQLYGHRGYYWGQGTQVTVSS | high polyreactivity |
| QVQVVESGGGLVQAGGSLRLSCAASGFIIKDNAMGWYRQAPGKERELVAAITASGGRTYYADSVKGRFTISRDNAKNTVYLQMNSLKPEDTAVYYCAKRVKRPSESYNYNYYYWGQGTQVTVSS | high polyreactivity |
| QVQVVESGGGLVQAGGSLRLSCAASGRIYQYYDMGWYRQAPGKERELVATITSGGSTNYADSVKGRFTISRDNAKNTVYLQMNSLKPEDTAVYYCAALAYTASDYQPYDATEYNYWGQGTQVTVSS | low polyreactivity |
| QVQVVESGGGLVQAGGSLRLSCAASGRTFTRYAMGWYRQAPGKERELVATITRGGSTNYADSVKGRFTISRDNAKNTVYLQMNSLKPEDTAVYYCAAGYFIRTRSRYRYDYWGQGTQVTVSS | high polyreactivity |
| QVQVVESGGGLVQAGGSLRLSCAASGSFFTRYAIGWYRQAPGKERELVAAISGSGGSTYYADSVKGLFTISRDNAKITVSLQMNSLKPEDTAVYYCAARDYWGQGTQVTVSS | high polyreactivity |
| QVQVVESGGGLVQAGGSLRLSCAASGSIFGGYTMGWYRQAHGNERELVAGITISGGSTYYADSVKGRFTISRDTAKNTVYLQMNSLKPEDTAVYYCAAVSFVVSSWGYGYWGQGTQVTVSS | low polyreactivity |

— the nanobody polyreactivity screen of Harvey et al. (2022)
